Measured values taken from patent US20050226876A1.

Columns and labels:
[1] = target: human complement factor C1q (human) (UniProt P02745); experiment: C1q ELISA, antibody coated; background OD405 0.079
[2] = target: human complement factor C3 (from human pooled serum) (human) (UniProt P01024); experiment: C3 ELISA, antibody coated, human pooled serum; background OD405 0.098
[3] = target: Fcγ receptors on human monocytes (FcγRI and RII); experiment: FACS on monocytes from human blood, antibody 10 µg/ml; no antibody: 8.5
[4] = target: Fcγ receptor on human NK cells (FcγRIII) (human) (UniProt P08637); experiment: FACS on NK cells from human blood, antibody 10 µg/ml; no antibody: 0.03
Fcγ receptor on human NK cells (FcγRIII) (human), sequence (P08637 17-254): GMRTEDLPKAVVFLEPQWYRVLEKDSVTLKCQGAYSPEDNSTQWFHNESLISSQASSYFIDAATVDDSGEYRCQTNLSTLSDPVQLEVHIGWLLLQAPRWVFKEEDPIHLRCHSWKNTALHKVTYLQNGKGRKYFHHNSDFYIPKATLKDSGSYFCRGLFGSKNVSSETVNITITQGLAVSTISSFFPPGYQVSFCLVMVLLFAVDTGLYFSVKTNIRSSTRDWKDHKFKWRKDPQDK

[5] = target: Fcγ receptors on human granulocytes (FcγRII and RIII); experiment: FACS on granulocytes from human blood, antibody 10 µg/ml; no antibody: 1.2

human complement factor C1q (human), sequence (P02745 23-245 limits assumed, chain 1 of 3): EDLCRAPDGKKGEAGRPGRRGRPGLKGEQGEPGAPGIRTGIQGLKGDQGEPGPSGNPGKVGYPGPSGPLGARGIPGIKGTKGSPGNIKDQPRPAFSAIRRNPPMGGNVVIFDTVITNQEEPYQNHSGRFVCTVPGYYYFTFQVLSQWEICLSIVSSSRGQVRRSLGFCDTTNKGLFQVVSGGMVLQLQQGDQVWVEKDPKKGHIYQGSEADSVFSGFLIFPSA
human complement factor C1q (human), sequence (P02746 28-253 limits assumed, chain 2 of 3, further chain): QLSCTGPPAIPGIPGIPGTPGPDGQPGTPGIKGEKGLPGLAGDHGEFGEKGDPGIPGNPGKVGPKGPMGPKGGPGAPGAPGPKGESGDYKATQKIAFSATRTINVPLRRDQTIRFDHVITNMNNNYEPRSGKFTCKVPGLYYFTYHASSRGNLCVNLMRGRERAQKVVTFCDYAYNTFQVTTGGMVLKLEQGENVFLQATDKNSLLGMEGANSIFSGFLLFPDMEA
human complement factor C1q (human), sequence (P02747 29-245 limits assumed, chain 3 of 3, further chain): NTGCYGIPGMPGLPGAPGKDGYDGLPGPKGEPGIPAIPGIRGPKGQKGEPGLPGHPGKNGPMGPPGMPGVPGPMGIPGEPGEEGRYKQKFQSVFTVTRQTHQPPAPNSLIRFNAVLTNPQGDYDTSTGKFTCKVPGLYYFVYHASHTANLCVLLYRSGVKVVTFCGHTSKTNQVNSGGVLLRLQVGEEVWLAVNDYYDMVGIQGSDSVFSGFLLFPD
human complement factor C3 (from human pooled serum) (human), sequence (P01024 23-1663 limits assumed): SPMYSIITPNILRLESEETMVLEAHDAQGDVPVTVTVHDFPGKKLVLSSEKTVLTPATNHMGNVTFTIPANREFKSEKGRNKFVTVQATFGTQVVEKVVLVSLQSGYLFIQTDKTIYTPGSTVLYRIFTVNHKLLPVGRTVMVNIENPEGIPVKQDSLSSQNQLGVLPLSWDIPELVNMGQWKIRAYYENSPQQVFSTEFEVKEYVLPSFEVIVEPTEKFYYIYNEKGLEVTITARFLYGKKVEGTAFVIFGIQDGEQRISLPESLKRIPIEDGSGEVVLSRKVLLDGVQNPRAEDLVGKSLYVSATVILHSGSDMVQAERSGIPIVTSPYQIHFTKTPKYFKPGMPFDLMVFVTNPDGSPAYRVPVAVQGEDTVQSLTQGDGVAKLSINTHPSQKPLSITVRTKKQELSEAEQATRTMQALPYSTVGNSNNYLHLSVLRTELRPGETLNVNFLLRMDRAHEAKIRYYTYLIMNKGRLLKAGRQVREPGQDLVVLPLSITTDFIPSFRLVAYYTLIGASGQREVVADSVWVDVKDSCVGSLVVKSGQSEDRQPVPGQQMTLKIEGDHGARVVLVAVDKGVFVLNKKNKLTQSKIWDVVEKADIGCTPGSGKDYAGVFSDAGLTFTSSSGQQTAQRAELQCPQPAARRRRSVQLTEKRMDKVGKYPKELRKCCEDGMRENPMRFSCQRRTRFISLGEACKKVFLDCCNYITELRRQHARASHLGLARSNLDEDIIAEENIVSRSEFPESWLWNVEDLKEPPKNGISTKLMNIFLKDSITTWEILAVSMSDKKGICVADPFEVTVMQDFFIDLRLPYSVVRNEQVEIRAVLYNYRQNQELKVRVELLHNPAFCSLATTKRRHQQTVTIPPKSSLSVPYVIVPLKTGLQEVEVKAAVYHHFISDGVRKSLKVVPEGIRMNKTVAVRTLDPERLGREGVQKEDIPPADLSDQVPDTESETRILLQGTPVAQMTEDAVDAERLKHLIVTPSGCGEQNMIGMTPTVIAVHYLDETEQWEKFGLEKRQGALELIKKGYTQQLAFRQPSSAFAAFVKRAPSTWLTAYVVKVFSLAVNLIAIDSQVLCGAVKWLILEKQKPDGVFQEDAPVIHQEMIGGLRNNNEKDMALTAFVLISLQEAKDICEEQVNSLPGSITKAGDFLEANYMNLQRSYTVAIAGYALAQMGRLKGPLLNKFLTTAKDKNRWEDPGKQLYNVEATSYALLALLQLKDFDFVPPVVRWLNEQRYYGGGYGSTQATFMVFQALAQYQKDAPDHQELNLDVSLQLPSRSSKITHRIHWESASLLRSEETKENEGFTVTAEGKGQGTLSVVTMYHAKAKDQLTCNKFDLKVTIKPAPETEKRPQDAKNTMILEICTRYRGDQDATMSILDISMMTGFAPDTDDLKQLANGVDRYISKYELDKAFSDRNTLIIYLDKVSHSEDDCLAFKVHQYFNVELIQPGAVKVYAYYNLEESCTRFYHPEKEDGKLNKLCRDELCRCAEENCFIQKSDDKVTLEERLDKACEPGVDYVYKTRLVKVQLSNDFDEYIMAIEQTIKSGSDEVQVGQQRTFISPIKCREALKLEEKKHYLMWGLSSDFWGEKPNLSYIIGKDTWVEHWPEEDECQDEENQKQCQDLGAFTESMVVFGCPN

Bmax (OD405 at 10 µg/ml) [1] [OD405]	Bmax (OD405 at 10 µg/ml) [2] [OD405]	% monocytes binding antibody [3] [%]	% NK cells binding antibody [4] [%]	% granulocytes binding antibody [5] [%]	Substance
0.222	0.182	9.4	0.06		human IgG4 (CLB, the Netherlands), negative control (antibody)
		14.5		1.6	HuMab 002 Fc variant IgG4v1 (S228P; L235E) (antibody)
